From PMC2572730, “Structural Basis for the Recognition of Histone H4 by the Histone-Chaperone RbAp46” (Structure(London, England:1993), 2008)

Key:
[1] = target: T1, RbAp46 (Homo sapiens, UniProt Q16576); assay: Reciprocal pull-down of 35S-labeled RbAp46 with GST-histone H4 (1–48) mutants; format: binding; conditions: autoradiogram, 300 mM NaCl, 20 mM Tris pH 8.0, 5 mM DTT, 0.1% (v/v) NP-40
T1 construct: His-tag (cleaved yes); made in house; host or cells: insect cells (baculovirus)
Excerpt: Figure 2 Histone H4 Recognition by the RbAp46-Binding Pocket (A) Electrostatic surface potential of RbAp46 contoured and color coded at −91 kT (red) and +91 kT (blue). […] The histone H4 peptide is shown as a stick model. The histone H4-binding pocket in RbAp46 is mainly formed by the negatively charged PP loop (which terminates in Pro-362 and Pro-363) and a hydrophobic surface on the N-terminal α helix (helix 1). The interaction of histone H4 residues (Gln-27, Lys-31, Ile-34, Arg-35, Arg-36, Leu-37, Arg-39, and Arg-40) is shown. (B) Detailed view showing the interactions of the hydrophobic Ile-34 and Leu-37 histone H4 residues with Phe-29 and Leu-30 in helix 1 of RbAp46, as well as the positively charged Arg-36, Arg-39, and Arg-40 histone H4 residues with the backbone carbonyl groups in the PP loop and a cluster of acidic residues (Glu-356, Asp-357, and Asp-360) in RbAp46. […] In each experiment, the input lane contains 30% of the ^35S-labeled RbAp46 protein used in each of the pull-down assays. The experiments were carried out in 300 mM NaCl, 20 mM Tris (pH 8.0), 5 mM DTT, and 0.1% (v/v) NP-40.
Recombinant histone H4 and RbAp46 proteins were expressed and purified as described previously ([Verreault et al., 1998; Berger et al., 2004]). Detailed procedures for the generation of the RbAp46/histone H4 peptide and recombinant histone H4 complexes can be found in the Supplemental Data. Recombinant full-length (Xenopus lavis) histones H3 and H4 were expressed, purified, and refolded as described ([Luger et al., 1997]). For the binding experiments, histones H3/H4 and lysozyme (Sigma) were crosslinked to DynaBeads (Dynal Biotech) according to the manufacturer's recommendations. RbAp46 and histone H4 mutants were generated by using the QuikChange Site-Directed Mutagenesis kit (Stratagene). The RbAp46 mutants were expressed by using a Rabbit Reticulocyte Cell Free system (Promega).

[2] = target: T1, RbAp46; assay: BS3 chemical crosslinking with RbAp46; format: binding; conditions: BS3 crosslinker; 1.1 M NaCl, 20 mM HEPES pH 7.5, 10 mM DTT; ∼10 μM protein; room temperature 30 min; NuPAGE, Coomassie and anti-H3/anti-H4 immunoblot
Excerpt: Figure 4 Interaction of Histones H3 and H4 with RbAp46 (A) Comparison of chemical crosslinking of histones H3 and H4 in the absence and presence of RbAp46. Three different 4%–12% NuPAGE gels were either (i) stained with Coomasie blue or blotted with (ii) anti-histone H4 or (iii) anti-histone H3 antibodies. By themselves, histones H3 and H4 appear to form a H3/H4 heterodimer (∼25 kDa), an H3_2 homodimer (∼30 kDa), and an H3_2/H4_2 heterotetramer (∼50 kDa), indicated by arrowheads. In the presence of RbAp46, two bands, which both contain histones H3 and H4 (also indicated by arrowheads), can be seen in positions roughly corresponding to the interaction of RbAp46 with histone H3/H4 dimers and tetramers (∼65–75 kDa). […] The fractions were collected and analyzed on 4%–12% NuPAGE gels.
RbAp46/H3/H4 crosslinking was performed by using the BS^3 crosslinker (Pierce) in 1.1 M NaCl, 20 mM HEPES (pH 7.5), and 10 mM DTT. Freshly prepared BS^3 stock solution, 3% (w/v), was diluted 1/5, 1/10, 1/20, 1/50, and 1/100 with distilled water, and 1 μl of the resulting solution was mixed with 10 μl of ∼10 μM RbAp46, recombinant histone H3/H4, or RbAp46/H3/H4 prior to incubation at room temperature for 30 min. […] The proteins were analyzed on separate 4%–12% NuPAGE gels, one for Coomassie blue staining and one for each Western blot with either anti-histone H3 (Abcam) or anti-histone H4 (A.V.) antibodies.

[3] = test system: RbAp46 or RbAp48; conditions: ref Verreault et al., 1998; cited from earlier work

T1 sequence (Q16576 whole entry): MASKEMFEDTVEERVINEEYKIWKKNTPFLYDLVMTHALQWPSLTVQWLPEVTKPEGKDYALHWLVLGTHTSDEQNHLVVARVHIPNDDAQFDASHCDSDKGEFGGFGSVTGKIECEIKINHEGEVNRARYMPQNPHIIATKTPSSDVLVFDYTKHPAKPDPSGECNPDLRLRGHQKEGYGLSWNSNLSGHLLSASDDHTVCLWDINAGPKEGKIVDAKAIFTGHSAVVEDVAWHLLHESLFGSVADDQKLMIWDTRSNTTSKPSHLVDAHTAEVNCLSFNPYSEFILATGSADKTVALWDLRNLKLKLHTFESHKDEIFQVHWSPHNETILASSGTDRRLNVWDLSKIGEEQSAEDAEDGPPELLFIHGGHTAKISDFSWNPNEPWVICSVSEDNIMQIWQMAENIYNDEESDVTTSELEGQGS

| Substance | Effect of histone H4 mutation on binding to RbAp46 [1] | other results |
| --- | --- | --- |
| I34T + L37D + R35S: GST-histone H4 (1–48) mutated in residues interacting with both helix 1 and the charged PP loop | disrupt the binding |  |
| L37D + R39V + R40N: GST-histone H4 (1–48) mutated in residues interacting with both helix 1 and the charged PP loop | disrupt the binding |  |
| R39V + R40N: GST-histone H4 (1–48) mutated in residues interacting with the charged PP loop | disrupt the binding |  |
| lysozyme: positively charged lysozyme protein (Sigma), negative control |  | Crosslinked species with RbAp46 [2]: no crosslinked species |
| residues 15–41 of histone H4: residues 15–41 of histone H4, sufficient for recognition by RbAp46 or RbAp48 (earlier studies) |  | Recognition by RbAp46 or RbAp48 [3]: sufficient for recognition by either RbAp46 or RbAp48 |
